From patent EP2090664A1 (Universität Konstanz, dated 2009)
No end group written: not given here. *: point of attachment. Biotin = O=C1N[C@H]2[C@H](CS[C@H]2CCCCC(=O)*)N1

B1: N-terminal peptide Aβ (1-16) (peptide)
peptide: Biotin-GGGGGDAEFRHDSGYEVHHQK
notes: Biotinylated synthetic peptide of the ELISA series
B2: human cystatin C (HCC) (other)
chain: SSPGKPPRLVGGPMDASVEEEGVRRALDFAVGEYNKASNDMYHSRALQVVRARKQIVAGVNYFLDVELGRTTCTKTQPNLDNCPFHDQPHLKRKAFCSFQIYAVPWQGTMTLSKSTCQDA
notes: also called intact HCC; complete HCC
B3: HCC (101-117)-peptide (peptide)
peptide: IYAVPWQGTMTLSKSTC
notes: Synthetic peptide; also called C-terminal HCC peptide
B4: HCC (93-120)-peptide (peptide)
peptide: RKAFCSFQIYAVPWQGTMTLSKSTCQDA
notes: Synthetic peptide; also called synthetic HCC (93-120)-peptide

Columns and labels:
human cystatin C (HCC) = target: B2; assay: ELISA, biotinylated Aβ-peptides on adsorbed HCC
β-amyloid (Aβ) Aβ (1-40) = target: T1, β-amyloid (Aβ) Aβ (1-40); assay: affinity-MS, Aβ (1-40) on the HCC micro-column
T1 construct: also called Aβ-peptide

N-Cysteinyl-Aβ (1-40) [1] = target: T2, N-Cysteinyl-Aβ (1-40) (N-terminal Cys attached via a thioether bond to UltraLink-Iodoacetyl gel); assay: summary of affinity-MS, epitope excision and ELISA results
T2 construct: also called Cys-Aβ (1-40); immobilized Cys-Aβ-peptide

N-Cysteinyl-Aβ (1-40) [2] = target: T2, N-Cysteinyl-Aβ (1-40); assay: affinity-MS, HCC (93-120) on the immobilized Cys-Aβ (1-40) column

B1
binding result (human cystatin C (HCC)): no binding

B2
binding result (β-amyloid (Aβ) Aβ (1-40)): binds

B3
binding result (N-Cysteinyl-Aβ (1-40) [1]): binds

B4
binding result (N-Cysteinyl-Aβ (1-40) [2]): binds
